From the supplement of paper PMC7877785 come the findings set out here.

± gives the uncertainty stated by the source.

This data set can be described thus: self-splicing fitness, log relative to wild type (ln ratio); higher = more splicing; Tetrahymena group I intron in knt gene, E. coli kanamycin selection, DiMSum; sequences stand for … in CUCUCU…GGAGGGAAAAGUUAUCAGGCAUGCACCUGGUAGCUAGUCUUUAAACCAAUAGAUUGCAUCGGUUUAAAAGGCAAGACCGUCAAAUUGCGGGAAAGGGGUCAACAGCCGUUCAGUACCAAGUCUCAGGGGAAACUUUGAGAUGGCCUUGCAAAGGGUAUGGUAAUAAGCUGACGGACAUGGUCCUAACCACGCAGCCAAGUCCUAAGUCAACAGAUCUUCUGUUGAUAUGGAUGCAGUUCACAGACUAAAUGUCGGUCGGGGAAGAUGUAUUCUUCUCAUAAGAUAUAGUCGGACCUCUCCUUAAUGGGAGCUAGCGGAUGAAGUGAUGCAACACUGGAGCCGCUGGGAACUAAUUUGUAUGCGAAAGUAUAUUGAUUAGUUUUGGAGUACUCGUGGUCG
Summed up:
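Fitness was computed with DiMSum as the error-weighted combination of replicate fold changes, kanamycin versus none, each normalised to wild type. The library randomised all eight intron nucleotides of the P1ex region, with the intron placed in the knt kanamycin-resistance gene on pET-22b(+) in E. coli BL21(DE3). Six replicate transformations were grown overnight at 37°C or 30°C on LB agar with or without 25 μg/mL kanamycin, plus 100 μg/mL carbenicillin, 50 μM IPTG and 0.2% rhamnose. Pooled colonies were amplicon-sequenced on an Illumina HiSeq 2500.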

Take GCGCAGCAAUAUUACGUUUU: the “self-splicing fitness (ln)” value is -0.735 ± 0.049 (30 °C) and -0.277 ± 0.063 (37 °C). Taken in the same sequence, the figures for GCGGAGCAAUAUUACGAACG were -3.06 ± 0.29 and -2.41 ± 0.23. The matching figures for GCGGAGCAAUAUUACGACGU: -4.57 ± 0.46 and -2.5 ± 0.3.

For the sequence GCGGAGCAAUAUUACGACUC, the “self-splicing fitness (ln)” value was -2.06 ± 0.25 (30 °C) and -0.372 ± 0.34 (37 °C). Regarding GCGGAGCAAUAUUACGAGGA, the “self-splicing fitness (ln)” value is, setting by setting: (30 °C) -2.26 ± 0.47; (37 °C) -2.66 ± 0.37. For the sequence GCGGAGCAAUAUUACGCCAA, the “self-splicing fitness (ln)” value (30 °C) was -2.32 ± 0.44.

For GCGGAGCAAUAUUACGCGGC, the “self-splicing fitness (ln)” value (30 °C) is -3.04 ± 0.48. For GCGGAGCAAUAUUACGGAUG, the “self-splicing fitness (ln)” value is -3.28 ± 0.17 (30 °C) and -1.67 ± 0.22 (37 °C). Taken in the same sequence, the figures for GCGGAGCAAUAUUACGGCGA were -1.5 ± 0.23 and -1.29 ± 0.28.

Turning to GCGGAGCAAUAUUACGGGAU, the “self-splicing fitness (ln)” value (30 °C) is 0.0919 ± 0.27. On the same count and under the same terms, for GCGGAGCAAUAUUACGGGGU the value was -1.55 ± 0.23.

As for GCGGAGCAAUAUUACGUAGC, the “self-splicing fitness (ln)” value is -1.91 ± 0.28 (30 °C) and -2.38 ± 0.41 (37 °C). Turning to GCGGAGCAAUAUUACGUCUC, the “self-splicing fitness (ln)” value (37 °C) was -2.54 ± 0.38. With GCGGAGCAAUAUUACGUGGU, the “self-splicing fitness (ln)” value is, setting by setting: (30 °C) -3.54 ± 0.26; (37 °C) -3.01 ± 0.4.

Take GCGGAGCAAUAUUACGUGUC: the “self-splicing fitness (ln)” value is, setting by setting: (30 °C) -2.84 ± 0.3; (37 °C) -1.06 ± 0.43.

For the sequence GCGUAGCAAUAUUACGAAAU, the “self-splicing fitness (ln)” value was -2.16 ± 0.29 (30 °C) and -0.358 ± 0.24 (37 °C). Taken in the same sequence, the figures for GCGUAGCAAUAUUACGAAGU were -2.22 ± 0.15 and -1.11 ± 0.16.

GCGUAGCAAUAUUACGACGC: the “self-splicing fitness (ln)” value (30 °C) was -3.7 ± 0.39. As for GCGUAGCAAUAUUACGCAUC, the “self-splicing fitness (ln)” value runs as follows: (30 °C) -3.37 ± 0.5; (37 °C) -1 ± 0.4. Take GCGUAGCAAUAUUACGCCGA: the “self-splicing fitness (ln)” value (37 °C) is -2.28 ± 0.47. For GCGUAGCAAUAUUACGCUCC, the “self-splicing fitness (ln)” value by setting is: (30 °C) -1.88 ± 0.2; (37 °C) -0.401 ± 0.39.

Regarding GCGUAGCAAUAUUACGGACA, the “self-splicing fitness (ln)” value (30 °C) was -1.31 ± 0.17 and the “self-splicing fitness (ln)” value (37 °C) was -0.534 ± 0.13. As for GCGUAGCAAUAUUACGGCCA, the “self-splicing fitness (ln)” value (37 °C) stood at 0.769 ± 0.3.

Turning to GCGUAGCAAUAUUACGGGAA, the “self-splicing fitness (ln)” value is, setting by setting: (30 °C) -1.38 ± 0.27; (37 °C) -1.44 ± 0.34. As for GCGUAGCAAUAUUACGGGCA, the “self-splicing fitness (ln)” value runs as follows: (30 °C) -0.858 ± 0.2; (37 °C) -0.854 ± 0.17. As to GCGUAGCAAUAUUACGGUAU, the “self-splicing fitness (ln)” value was -2.03 ± 0.077 (30 °C) and -0.828 ± 0.1 (37 °C). Taken in the same sequence, the figures for GCGUAGCAAUAUUACGUACA were -1.1 ± 0.16 and -1.23 ± 0.14. For GCGUAGCAAUAUUACGUAGU, the “self-splicing fitness (ln)” value (30 °C) was -2.27 ± 0.21 and the “self-splicing fitness (ln)” value (37 °C) was -0.677 ± 0.14. In the case of GCGUAGCAAUAUUACGUCAU, the “self-splicing fitness (ln)” value is -3.22 ± 0.26 (30 °C) and -2.25 ± 0.3 (37 °C). Taken in the same sequence, the figures for GCGUAGCAAUAUUACGUCGG were -2.69 ± 0.21 and -3.18 ± 0.24. Take GCGUAGCAAUAUUACGUGAC: the “self-splicing fitness (ln)” value (30 °C) is -2.29 ± 0.29 and the “self-splicing fitness (ln)” value (37 °C) was -1.15 ± 0.28. Taken in the same sequence, the figures for GCGUAGCAAUAUUACGUGCA were -1.53 ± 0.12 and -1.02 ± 0.13. In the case of GCGUAGCAAUAUUACGUGCU, the “self-splicing fitness (ln)” value by setting is: (30 °C) -2.05 ± 0.16; (37 °C) -2.44 ± 0.27. Taken in the same sequence, the figures for GCGUAGCAAUAUUACGUGGA were -3.68 ± 0.48 and -2.23 ± 0.38.

For the sequence GCGUAGCAAUAUUACGUGUA, the “self-splicing fitness (ln)” value was -3.63 ± 0.21 (30 °C) and -2.43 ± 0.12 (37 °C). Consider GCGUAGCAAUAUUACGUUCC, for which, where the note is “37 °C”, the “self-splicing fitness (ln)” value is -2.36 ± 0.49. GCGUAGCAAUAUUACGUUGA: the “self-splicing fitness (ln)” value is -3.16 ± 0.33 (30 °C) and -1.94 ± 0.21 (37 °C). Taken in the same sequence, the figures for GCGUAGCAAUAUUACGUUUG were -3.14 ± 0.21 and -1.37 ± 0.15. Taken in the same sequence, the figures for GCUAAGCAAUAUUACGACAG were -2.67 ± 0.17 and -2.51 ± 0.32. Consider GCUAAGCAAUAUUACGAUGC, for which the “self-splicing fitness (ln)” value is, setting by setting: (30 °C) -3.28 ± 0.19; (37 °C) -2.18 ± 0.18. The matching figures for GCUAAGCAAUAUUACGAUUC: -0.0116 ± 0.081 and -0.128 ± 0.092. The matching figures for GCUAAGCAAUAUUACGCACG: -1.84 ± 0.14 and -0.0584 ± 0.14.

Regarding GCUAAGCAAUAUUACGCAUU, the “self-splicing fitness (ln)” value is -0.91 ± 0.065 (30 °C) and -0.163 ± 0.084 (37 °C). With GCUAAGCAAUAUUACGCCAA, the “self-splicing fitness (ln)” value by setting is: (30 °C) -2.35 ± 0.33; (37 °C) -1.74 ± 0.41. Taken in the same sequence, the figures for GCUAAGCAAUAUUACGCCAC were -1.43 ± 0.35 and -2 ± 0.38. The matching figures for GCUAAGCAAUAUUACGCCCU: -0.606 ± 0.19 and -0.768 ± 0.15. The matching figures for GCUAAGCAAUAUUACGCCUU: -1.43 ± 0.11 and -0.0502 ± 0.14. With GCUAAGCAAUAUUACGCGCU, the “self-splicing fitness (ln)” value runs as follows: (30 °C) -2.47 ± 0.16; (37 °C) -1.57 ± 0.23. GCUAAGCAAUAUUACGCGGC: the “self-splicing fitness (ln)” value (30 °C) is -0.424 ± 0.19 and the “self-splicing fitness (ln)” value (37 °C) was -2.64 ± 0.5. For GCUAAGCAAUAUUACGCUGA, the “self-splicing fitness (ln)” value is, setting by setting: (30 °C) -1.48 ± 0.18; (37 °C) -1.02 ± 0.2. The matching figures for GCUAAGCAAUAUUACGCUUG: -3.24 ± 0.17 and -1.71 ± 0.18. Consider GCUAAGCAAUAUUACGGUCG, for which the “self-splicing fitness (ln)” value is -2.27 ± 0.11 (30 °C) and -1.34 ± 0.14 (37 °C).

For GCUAAGCAAUAUUACGGUGU, the “self-splicing fitness (ln)” value (30 °C) was -2.48 ± 0.087 and the “self-splicing fitness (ln)” value (37 °C) is -1.6 ± 0.1.

In the case of GCUAAGCAAUAUUACGUCCA, the “self-splicing fitness (ln)” value is -1.94 ± 0.32 (30 °C) and -0.684 ± 0.23 (37 °C). The matching figures for GCUAAGCAAUAUUACGUCCG: -1.53 ± 0.13 and -0.712 ± 0.15. GCUAAGCAAUAUUACGUCGC: the “self-splicing fitness (ln)” value runs as follows: (30 °C) -2.46 ± 0.19; (37 °C) -2.55 ± 0.29. The matching figures for GCUAAGCAAUAUUACGUCUG: -1.84 ± 0.085 and -0.987 ± 0.096. The matching figures for GCUAAGCAAUAUUACGUUAA: -2.72 ± 0.16 and -1.74 ± 0.18.

For the sequence GCUAAGCAAUAUUACGUUCC, the “self-splicing fitness (ln)” value is -1.14 ± 0.087 (30 °C) and -0.467 ± 0.14 (37 °C). Turning to GCUCAGCAAUAUUACGACUG, the “self-splicing fitness (ln)” value reads like this: (30 °C) -2.66 ± 0.35; (37 °C) 0.178 ± 0.19. The matching figures for GCUCAGCAAUAUUACGAGCC: -3.98 ± 0.31 and -3.64 ± 0.39. In the case of GCUCAGCAAUAUUACGAGGA, the “self-splicing fitness (ln)” value is -0.479 ± 0.12 (30 °C) and -0.741 ± 0.12 (37 °C). The matching figures for GCUCAGCAAUAUUACGAUUG: -2.83 ± 0.12 and -1.11 ± 0.12.
